Experimental data from article PMC8902505, “A Continuous Assay Set to Screen and Characterize Novel Protein N-Acetyltransferases Unveils Rice General Control Non-repressible 5-Related N-Acetyltransferase2 Activity” (Frontiers in Plant Science, 2022).

B1: SpNatA (Schizosaccharomyces pombe 972h-) (protein)
chain: MDIRPARISDLTGMQNCNLHNLPENYQLKYYLYHAISWPMLSYVATDPKGRVVGYVLAKMEEEPKDGIPHGHITSVSVMRSYRHLGLAKRLMVQSQRAMVEVYGAKYMSLHVRKSNRAAIHLYRDTLQFDVQGIESKYYADGEDAYAMHKDFSTLKFDTPETNDELAKTVQSLALNN

Legend:
OsGNAT2 = molecular target: T1, OsGNAT2 (Oryza sativa, UniProt Q5KQI6); assay: PDH-coupled continuous assay (NADH, […] nm); type: biochemical; conditions: upper bound inferred from no gain between 100 and 500 μM Ac-CoA; peptide substrate; pH 8.0; 30 °C
T1 construct: gene SNAT1
T1 sequence (Q5KQI6 89-254): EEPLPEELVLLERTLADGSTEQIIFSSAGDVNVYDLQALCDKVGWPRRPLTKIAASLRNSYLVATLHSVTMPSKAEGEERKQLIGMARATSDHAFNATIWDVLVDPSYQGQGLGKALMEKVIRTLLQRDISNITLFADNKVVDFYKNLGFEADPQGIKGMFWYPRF

[1] = molecular target: Schizosaccharomyces pombe NatA (SpNaa15 full length + SpNaa10 full length heterodimer) (Schizosaccharomyces pombe)
[2] = molecular target: Schizosaccharomyces pombe NatA (SpNaa15 full length + SpNaa10 full length heterodimer) (Schizosaccharomyces pombe); remark: listed apart in the source
purified protein = substrate: CC(=O)SCCNC(=O)CCNC(=O)[C@H](O)C(C)(C)COP(=O)(O)OP(=O)(O)OC[C@H]1O[C@@H](n2cnc3c(N)ncnc32)[C@H](O)[C@@H]1OP(=O)(O)O; assay: purified protein; conditions: extrapolated to saturating reference peptide …, 12.5-500 μM Ac-CoA, pH 8.0, 30 °C

Row | Molecule | Km of the peptide substrate, PDH-coupled acetylation assay, 100 μM Ac-CoA, 30°C [1] [mM] | Km of the peptide substrate, PDH-coupled acetylation assay, 100 μM Ac-CoA, 30°C (value as told in the text) [2] [mM] | also measured
1 | CC(=O)SCCNC(=O)CCNC(=O)[C@H](O)C(C)(C)COP(=O)(O)OP(=O)(O)OC[C@H]1O[C@@H](n2cnc3c(N)ncnc32)[C@H](O)[C@@H]1OP(=O)(O)O [Ac-CoA] | – | – | Km (OsGNAT2): < 0.03 mM
2 | SASEAGVAEQVKKLSVNDS [natural 19-amino acid N-terminal sequence of yeast Ths1p, …] | 2.3 | – | –
3 | SASEAGVR [peptide SASEAGVR] | 14.8 | 12 | –
4 | SASEAGV [peptide SASEAGV] | 25.5 | 19 | –
5 | B1 | – | – | Km (purified protein): 0.020 ± 0.003 mM; kcat (purified protein): 10 s⁻¹; kcat/Km (purified protein): 508000 ± 89900 M⁻¹ s⁻¹
6 | SASEAGVRWGRPVGRRRRP [reference peptide … (canonical NatA substrate)] | 1 | – | –
